# Data taken from the supplement of paper PMC5998384.
# Experiments:
# HeLa Kyoto [1] = assay: solubility change mitosis vs G1/S (difference of NP-40 vs SDS log2 ratios) (log2 ratio difference); higher = more soluble in mitosis
# HeLa Kyoto [2] = assay: solubility in G1/S (NP-40 vs SDS abundance) (log2 ratio); higher = more soluble; conditions: cell cycle stage: G1/S
# 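Wherever solubility change mitosis vs G1/S (difference of NP-40 vs SDS log2 ratios) is given: synchronized HeLa Kyoto cells (double thymidine block for G1/S, nocodazole release for mitosis), protein amounts in NP-40 versus SDS lysates quantified by mass spectrometry, three biological replicates.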
# 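Wherever solubility in G1/S (NP-40 vs SDS abundance) is given: HeLa Kyoto cells arrested at G1/S by double thymidine block, proteins quantified by TMT10plex mass spectrometry in mild NP-40 versus SDS extracts, three biological replicates.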
Sequence,solubility change mitosis (log2) (HeLa Kyoto [1]),solubility in G1/S (log2) (HeLa Kyoto [2])
MGASSSSALARLGLPARPWPRWLGVAALGLAAVALGTVAWRRAWPRRRRRLQQVGTVAKLWIYPVKSCKGVPVSEAECTAMGLRSGNLRDRFWLVIKEDGHMVTARQEPRLVLISIIYENNCLIFRAPDMDQLVLPSKQPSSNKLHNCRIFGLDIKGRDCGNEAAKWFTNFLKTEAYRLVQFETNMKGRTSRKLLPTLDQNFQVAYPDYCPLLIMTDASLVDLNTRMEKKMKMENFRPNIVVTGCDAFEEDTWDELLIGSVEVKKVMACPRCILTTVDPDTGVIDRKQPLDTLKSYRLCDPSERELYKLSPLFGIYYSVEKIGSLRVGDPVYRMV [MARC2],0.103,-0.315
MGSQHSAAARPSSCRRKQEDDRDGLLAEREQEEAIAQFPYVEFTGRDSITCLTCQGTGYIPTEQVNELVALIPHSDQRLRPQRTKQYVLLSILLCLLASGLVVFFLFPHSVLVDDDGIKVVKVTFNKQDSLVILTIMATLKIRNSNFYTVAVTSLSSQIQYMNTVVSTYVTTNVSLIPPRSEQLVNFTGKAEMGGPFSYVYFFCTVPEILVHNIVIFMRTSVKISYIGLMTQSSLETHHYVDCGGNSTAI [TMEM106C],-0.29,0.121
MAHEAMEYDVQVQLNHAEQQPAPAGMASSQGGPALLQPVPADVVSSQGVPSILQPAPAEVISSQATPPLLQPAPQLSVDLTEVEVLGEDTVENINPRTSEQHRQGSDGNHTIPASSLHSMTNFISGLQRLHGMLEFLRPSSSNHSVGPMRTRRRVSASRRARAGGSQRTDSARLRAPLDAYFQVSRTQPDLPATTYDSETRNPVSEELQVSSSSDSDSDSSAEYGGVVDQAEESGAVILEEQLAGVSAEQEVTCIDGGKTLPKQPSPQKSEPLLPSASMDEEEGDTCTICLEQWTNAGDHRLSALRCGHLFGYRCISTWLKGQVRKCPQCNKKARHSDIVVLYARTLRALDTSEQERMKSSLLKEQMLRKQAELESAQCRLQLQVLTDKCTRLQRRVQDLQKLTSHQSQNLQQPRGSQAWVLSCSPSSQGQHKHKYHFQKTFTVSQAGNCRIMAYCDALSCLVISQPSPQASFLPGFGVKMLSTANMKSSQYIPMHGKQIRGLAFSSYLRGLLLSASLDNTIKLTSLETNTVVQTYNAGRPVWSCCWCLDEANYIYAGLANGSILVYDVRNTSSHVQELVAQKARCPLVSLSYMPRAASAAFPYGGVLAGTLEDASFWEQKMDFSHWPHVLPLEPGGCIDFQTENSSRHCLVTYRPDKNHTTIRSVLMEMSYRLDDTGNPICSCQPVHTFFGGPTCKLLTKNAIFQSPENDGNILVCTGDEAANSALLWDAASGSLLQDLQTDQPVLDICPFEVNRNSYLATLTEKMVHIYKWE [RFWD3],-0.0684,-0.0967
MEEKPSGPIPDMLATAEPSSSETDKEVLSPAVPAAAPSSSMSEEPGPEQAATPPVWERGGAGGMQQGSSPAPDSCQPGPGPSPGLTSIVSGTSEDLRPPRRRPPPGKQIPCSSPGCCLSFPSVRDLAQHLRTHCPPTQSLEGKLFRCSALSCTETFPSMQELVAHSKLHYKPNRYFKCENCLLRFRTHRSLFKHLHVCAEHAQSPAPPPPPALDREPPAPERPPEVDPASAPGLPFPLLEPFTTPAPAPTGPFLPYLNPAPFGLSPPRLRPFLAAAPGPPASSAAVWKKSQGAGSSPRRPQGGSDAPSGACR [ZNF414],-0.445,-0.217
MDEQEALNSIMNDLVALQMNRRHRMPGYETMKNKDTGHSNRQSDVRIKFEHNGERRIIAFSRPVKYEDVEHKVTTVFGQPLDLHYMNNELSILLKNQDDLDKAIDILDRSSSMKSLRILLLSQDRNHNSSSPHSGVSRQVRIKASQSAGDINTIYQPPEPRSRHLSVSSQNPGRSSPPPGYVPERQQHIARQGSYTSINSEGEFIPETSEQCMLDPLSSAENSLSGSCQSLDRSADSPSFRKSRMSRAQSFPDNRQEYSDRETQLYDKGVKGGTYPRRYHVSVHHKDYSDGRRTFPRIRRHQGNLFTLVPSSRSLSTNGENMGLAVQYLDPRGRLRSADSENALSVQERNVPTKSPSAPINWRRGKLLGQGAFGRVYLCYDVDTGRELASKQVQFDPDSPETSKEVSALECEIQLLKNLQHERIVQYYGCLRDRAEKTLTIFMEYMPGGSVKDQLKAYGALTESVTRKYTRQILEGMSYLHSNMIVHRDIKGANILRDSAGNVKLGDFGASKRLQTICMSGTGMRSVTGTPYWMSPEVISGEGYGRKADVWSLGCTVVEMLTEKPPWAEYEAMAAIFKIATQPTNPQLPSHISEHGRDFLRRIFVEARQRPSAEELLTHHFAQLMY [MAP3K3],-0.169,0.569
MASVSSATFSGHGARSLLQFLRLVGQLKRVPRTGWVYRNVQRPESVSDHMYRMAVMAMVIKDDRLNKDRCVRLALVHDMAECIVGDIAPADNIPKEEKHRREEEAMKQITQLLPEDLRKELYELWEEYETQSSAEAKFVKQLDQCEMILQASEYEDLEHKPGRLQDFYDSTAGKFNHPEIVQLVSELEAERSTNIAAAASEPHS [HDDC2],0.118,0.452
MVPGARGGGALARAAGRGLLALLLAVSAPLRLQAEELGDGCGHLVTYQDSGTMTSKNYPGTYPNHTVCEKTITVPKGKRLILRLGDLDIESQTCASDYLLFTSSSDQYGPYCGSMTVPKELLLNTSEVTVRFESGSHISGRGFLLTYASSDHPDLITCLERASHYLKTEYSKFCPAGCRDVAGDISGNMVDGYRDTSLLCKAAIHAGIIADELGGQISVLQRKGISRYEGILANGVLSRDGSLSDKRFLFTSNGCSRSLSFEPDGQIRASSSWQSVNESGDQVHWSPGQARLQDQGPSWASGDSSNNHKPREWLEIDLGEKKKITGIRTTGSTQSNFNFYVKSFVMNFKNNNSKWKTYKGIVNNEEKVFQGNSNFRDPVQNNFIPPIVARYVRVVPQTWHQRIALKVELIGCQITQGNDSLVWRKTSQSTSVSTKKEDETITRPIPSEETSTGINITTVAIPLVLLVVLVFAGMGIFAAFRKKKKKGSPYGSAEAQKTDCWKQIKYPFARHQSAEFTISYDNEKEMTQKLDLITSDMADYQQPLMIGTGTVTRKGSTFRPMDTDAEEAGVSTDAGGHYDCPQRAGRHEYALPLAPPEPEYATPIVERHVLRAHTFSAQSGYRVPGPQPGHKHSLSSGGFSPVAGVGAQDGDYQRPHSAQPADRGYDRPKAVSALATESGHPDSQKPPTHPGTSDSYSAPRDCLTPLNQTAMTALL [DCBLD1],-0.0211,0.0249
MMFRSDRMWSCHWKWKPSPLLFLFALYIMCVPHSVWGCANCRVVLSNPSGTFTSPCYPNDYPNSQACMWTLRAPTGYIIQITFNDFDIEEAPNCIYDSLSLDNGESQTKFCGATAKGLSFNSSANEMHVSFSSDFSIQKKGFNASYIRVAVSLRNQKVILPQTSDAYQVSVAKSISIPELSAFTLCFEATKVGHEDSDWTAFSYSNASFTQLLSFGKAKSGYFLSISDSKCLLNNALPVKEKEDIFAESFEQLCLVWNNSLGSIGVNFKRNYETVPCDSTISKVIPGNGKLLLGSNQNEIVSLKGDIYNFRLWNFTMNAKILSNLSCNVKGNVVDWQNDFWNIPNLALKAESNLSCGSYLIPLPAAELASCADLGTLCQATVNSPSTTPPTVTTNMPVTNRIDKQRNDGIIYRISVVIQNILRHPEVKVQSKVAEWLNSTFQNWNYTVYVVNISFHLSAGEDKIKVKRSLEDEPRLVLWALLVYNATNNTNLEGKIIQQKLLKNNESLDEGLRLHTVNVRQLGHCLAMEEPKGYYWPSIQPSEYVLPCPDKPGFSASRICFYNATNPLVTYWGPVDISNCLKEANEVANQILNLTADGQNLTSANITNIVEQVKRIVNKEENIDITLGSTLMNIFSNILSSSDSDLLESSSEALKTIDELAFKIDLNSTSHVNITTRNLALSVSSLLPGTNAISNFSIGLPSNNESYFQMDFESGQVDPLASVILPPNLLENLSPEDSVLVRRAQFTFFNKTGLFQDVGPQRKTLVSYVMACSIGNITIQNLKDPVQIKIKHTRTQEVHHPICAFWDLNKNKSFGGWNTSGCVAHRDSDASETVCLCNHFTHFGVLMDLPRSASQLDARNTKVLTFISYIGCGISAIFSAATLLTYVAFEKLRRDYPSKILMNLSTALLFLNLLFLLDGWITSFNVDGLCIAVAVLLHFFLLATFTWMGLEAIHMYIALVKVFNTYIRRYILKFCIIGWGLPALVVSVVLASRNNNEVYGKESYGKEKGDEFCWIQDPVIFYVTCAGYFGVMFFLNIAMFIVVMVQICGRNGKRSNRTLREEVLRNLRSVVSLTFLLGMTWGFAFFAWGPLNIPFMYLFSIFNSLQGLFIFIFHCAMKENVQKQWRQHLCCGRFRLADNSDWSKTATNIIKKSSDNLGKSLSSSSIGSNSTYLTSKSKSSSTTYFKRNSHTDNVSYEHSFNKSGSLRQCFHGQVLVKTGPC [GPR126],-0.0428,-0.117
MAQGSHQIDFQVLHDLRQKFPEVPEVVVSRCMLQNNNNLDACCAVLSQESTRYLYGEGDLNFSDDSGISGLRNHMTSLNLDLQSQNIYHHGREGSRMNGSRTLTHSISDGQLQGGQSNSELFQQEPQTAPAQVPQGFNVFGMSSSSGASNSAPHLGFHLGSKGTSSLSQQTPRFNPIMVTLAPNIQTGRNTPTSLHIHGVPPPVLNSPQGNSIYIRPYITTPGGTTRQTQQHSGWVSQFNPMNPQQVYQPSQPGPWTTCPASNPLSHTSSQQPNQQGHQTSHVYMPISSPTTSQPPTIHSSGSSQSSAHSQYNIQNISTGPRKNQIEIKLEPPQRNNSSKLRSSGPRTSSTSSSVNSQTLNRNQPTVYIAASPPNTDELMSRSQPKVYISANAATGDEQVMRNQPTLFISTNSGASAASRNMSGQVSMGPAFIHHHPPKSRAIGNNSATSPRVVVTQPNTKYTFKITVSPNKPPAVSPGVVSPTFELTNLLNHPDHYVETENIQHLTDPTLAHVDRISETRKLSMGSDDAAYTQALLVHQKARMERLQRELEIQKKKLDKLKSEVNEMENNLTRRRLKRSNSISQIPSLEEMQQLRSCNRQLQIDIDCLTKEIDLFQARGPHFNPSAIHNFYDNIGFVGPVPPKPKDQRSIIKTPKTQDTEDDEGAQWNCTACTFLNHPALIRCEQCEMPRHF [TAB2],-0.0447,0.348
MAAANPWDPASAPNGAGLVLGHFIASGMVNQEMLNMSKKTVSCFVNFTRLQQITNIQAEIYQKNLEIELLKLEKDTADVVHPFFLAQKCHTLQSMNNHLEAVLKEKRSLRQRLLKPMCQENLPIEAVYHRYMVHLLELAVTFIERLETHLETIRNIPHLAANLKKMNQALAKMDILVTETEELAENILKWRKQQNEVSSCIPKILAEESYLYKHDIIMPPLPFTSKVHVQTINAK [HAUS2],-0.117,0.261
